From article PMC2064543

Target: adenomatous polyposis coli (APC), endogenous in Xenopus egg extracts (Xenopus laevis (endogenous in egg extracts)) (UniProt P70039)
Assay: co-IP

UniProt P70039, sequence (P70039 whole entry): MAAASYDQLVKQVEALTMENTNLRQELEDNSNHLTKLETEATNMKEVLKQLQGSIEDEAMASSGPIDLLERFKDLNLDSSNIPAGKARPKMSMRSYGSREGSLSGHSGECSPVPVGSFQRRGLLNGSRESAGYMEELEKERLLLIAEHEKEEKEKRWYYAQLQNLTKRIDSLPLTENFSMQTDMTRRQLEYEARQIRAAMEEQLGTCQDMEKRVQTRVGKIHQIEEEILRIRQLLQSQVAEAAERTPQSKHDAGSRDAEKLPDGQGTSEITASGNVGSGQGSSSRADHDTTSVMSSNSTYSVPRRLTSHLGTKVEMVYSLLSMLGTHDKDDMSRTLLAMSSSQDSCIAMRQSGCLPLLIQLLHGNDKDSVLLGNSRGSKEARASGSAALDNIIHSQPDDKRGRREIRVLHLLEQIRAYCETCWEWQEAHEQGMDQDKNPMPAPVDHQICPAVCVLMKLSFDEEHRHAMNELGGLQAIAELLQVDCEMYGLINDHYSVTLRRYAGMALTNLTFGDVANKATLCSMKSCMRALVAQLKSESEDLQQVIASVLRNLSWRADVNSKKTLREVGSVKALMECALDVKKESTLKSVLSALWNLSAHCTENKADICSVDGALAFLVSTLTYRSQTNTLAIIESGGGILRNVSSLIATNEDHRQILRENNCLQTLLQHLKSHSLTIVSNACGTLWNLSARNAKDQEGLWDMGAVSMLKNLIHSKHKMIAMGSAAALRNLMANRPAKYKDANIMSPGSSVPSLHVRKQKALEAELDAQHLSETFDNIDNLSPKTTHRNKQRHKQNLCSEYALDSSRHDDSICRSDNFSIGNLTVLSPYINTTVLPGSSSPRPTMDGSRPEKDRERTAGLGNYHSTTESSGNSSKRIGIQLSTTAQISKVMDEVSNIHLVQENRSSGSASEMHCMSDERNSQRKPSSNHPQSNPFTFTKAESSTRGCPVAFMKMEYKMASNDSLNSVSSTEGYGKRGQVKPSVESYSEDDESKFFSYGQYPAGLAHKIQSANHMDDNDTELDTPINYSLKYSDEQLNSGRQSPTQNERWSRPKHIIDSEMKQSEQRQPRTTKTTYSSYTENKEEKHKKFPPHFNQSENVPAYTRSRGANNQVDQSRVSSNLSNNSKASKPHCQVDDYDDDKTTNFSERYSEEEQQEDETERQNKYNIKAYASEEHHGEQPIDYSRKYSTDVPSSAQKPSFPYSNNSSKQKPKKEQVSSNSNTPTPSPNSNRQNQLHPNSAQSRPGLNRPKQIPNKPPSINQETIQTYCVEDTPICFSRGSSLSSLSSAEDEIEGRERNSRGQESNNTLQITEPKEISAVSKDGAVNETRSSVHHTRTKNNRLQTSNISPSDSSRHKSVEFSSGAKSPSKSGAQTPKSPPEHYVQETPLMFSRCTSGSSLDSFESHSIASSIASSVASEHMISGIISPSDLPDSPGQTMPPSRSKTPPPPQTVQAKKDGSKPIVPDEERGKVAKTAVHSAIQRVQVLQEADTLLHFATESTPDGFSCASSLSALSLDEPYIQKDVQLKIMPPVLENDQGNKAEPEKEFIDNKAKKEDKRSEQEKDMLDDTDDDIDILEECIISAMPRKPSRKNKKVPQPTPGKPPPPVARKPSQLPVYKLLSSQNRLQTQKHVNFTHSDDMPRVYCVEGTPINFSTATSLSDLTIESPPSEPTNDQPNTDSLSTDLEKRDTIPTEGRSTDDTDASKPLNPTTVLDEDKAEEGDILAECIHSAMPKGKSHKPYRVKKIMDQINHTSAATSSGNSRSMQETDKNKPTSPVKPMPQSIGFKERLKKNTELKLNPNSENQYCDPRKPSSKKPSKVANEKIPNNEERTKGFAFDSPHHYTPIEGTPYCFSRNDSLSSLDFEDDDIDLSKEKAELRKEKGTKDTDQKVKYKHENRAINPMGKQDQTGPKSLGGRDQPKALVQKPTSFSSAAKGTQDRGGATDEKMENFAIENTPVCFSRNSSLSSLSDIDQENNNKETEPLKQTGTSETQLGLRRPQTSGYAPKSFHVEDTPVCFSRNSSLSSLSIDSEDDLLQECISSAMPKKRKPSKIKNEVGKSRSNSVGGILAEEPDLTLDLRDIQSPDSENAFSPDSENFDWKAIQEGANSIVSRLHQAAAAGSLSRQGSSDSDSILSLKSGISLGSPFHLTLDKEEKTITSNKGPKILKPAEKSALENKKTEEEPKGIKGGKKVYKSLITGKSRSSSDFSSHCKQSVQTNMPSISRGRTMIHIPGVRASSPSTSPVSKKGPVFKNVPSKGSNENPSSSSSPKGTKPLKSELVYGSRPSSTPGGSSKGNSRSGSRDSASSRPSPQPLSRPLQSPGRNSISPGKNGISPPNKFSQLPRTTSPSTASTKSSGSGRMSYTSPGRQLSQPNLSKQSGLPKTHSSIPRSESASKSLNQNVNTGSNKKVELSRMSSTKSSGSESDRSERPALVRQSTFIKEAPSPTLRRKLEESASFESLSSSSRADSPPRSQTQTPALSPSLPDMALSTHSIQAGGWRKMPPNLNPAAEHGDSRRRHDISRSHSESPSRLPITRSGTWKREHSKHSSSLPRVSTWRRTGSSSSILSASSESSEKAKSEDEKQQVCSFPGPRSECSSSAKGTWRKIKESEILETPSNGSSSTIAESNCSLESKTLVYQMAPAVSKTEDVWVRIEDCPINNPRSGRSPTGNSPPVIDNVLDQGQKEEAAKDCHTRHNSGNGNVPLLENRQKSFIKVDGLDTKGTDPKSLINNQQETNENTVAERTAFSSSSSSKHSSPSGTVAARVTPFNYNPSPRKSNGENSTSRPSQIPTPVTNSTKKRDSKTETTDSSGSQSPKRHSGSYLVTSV

percent less coimmunoprecipitated with APC than WT-BubR1: 40%
Substance: GST–KD-BubR1 (recombinant Xenopus kinase-dead BubR1) (from UniProt B7ZQ97 1-1041) (natural protein)
